Reference: patent publication US20190144556A1 (published 2019)

Key:
recombinant human TNFR2 = target: T1, recombinant human TNFR2 (human, UniProt P20333 23-257, limits assumed); assay: SPR (BIACORE 3000), biotinylated antibody captured on streptavidin, recombinant human TNFR2 injected
T1 construct: also called tumor necrosis factor receptor 2; full-length target protein
T1 sequence: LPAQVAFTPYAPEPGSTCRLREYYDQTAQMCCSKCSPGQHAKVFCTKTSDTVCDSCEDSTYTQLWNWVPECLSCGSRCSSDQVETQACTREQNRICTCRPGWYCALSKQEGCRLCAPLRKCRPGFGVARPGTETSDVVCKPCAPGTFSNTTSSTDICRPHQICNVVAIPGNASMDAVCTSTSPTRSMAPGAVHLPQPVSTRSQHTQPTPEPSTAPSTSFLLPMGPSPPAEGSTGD
Procedure: The affinities of antagonistic TNFR2 antibodies for recombinant human TNFR2 were measured using BIACORE™ Analysis Services (Precision Antibody). Briefly, the antibody was biotinylated at a 5:1 stoichiometric ratio using biotinyl-LC-LC-[…] (Thermo-Fisher) in PBS. Excess biotinylation reagent was removed by centrifugation chromatography and the biotinylated antibody was captured on 3000 RU of streptavidin surface to a level of 100 RU. […] Analysis of the kinetics of antigen binding was performed at a flow of 60 μL/min with 2 min injections. Antibodies were injected at a concentration of 1 mg/ml to the final capture of 100 RU. The instrument used was BIACORE™ 3000 with the BioCap chip (GE Healthcare). Double reference method was used for analysis. Reference channel contained the identical level of streptavidin.

[1] = target: T2, linear peptide containing amino acids 128-155 of SEQ ID NO: 7 within human TNFR2 (human); assay: ELISA, linear peptide coated at 1 µg/well, antibody 0.1 µg/well
T2 construct: Linear peptide purchased from GenScript and coated on the plate
T2 peptide: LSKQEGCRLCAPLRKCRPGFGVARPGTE
Procedure: (§1) ELISA was also used to determine linear epitopes present on the extracellular surface of TNFR2. Linear peptides corresponding to various regions within the TNFR2 primary sequence were purchased from GenScript (Piscataway, N.J.), diluted in coating buffer and placed on Immulon 4HBX Flat Bottom Microtiter Plates (Thermo Scientific) at a concentration of 1 μg/well. Primary TNFR2 antagonistic antibodies (0.1 μg/well) were incubated with substrates. Secondary antibodies against rodent IgG were used to detect the primary antibodies. Absorbance was measured using the SPECTRAMAX® 190 Absorbance Plate Reader and analyzed with SoftMax Pro 6.3 (Molecular Devices).

[2] = target: T3, linear peptide containing amino acids 112-139 of SEQ ID NO: 7 within human TNFR2 (human); assay: as above
T3 construct: Linear peptide purchased from GenScript and coated on the plate
T3 peptide: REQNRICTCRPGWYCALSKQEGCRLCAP
Procedure: as §1

[3] = target: T4, peptide fragment defined by residues 130-149 of SEQ ID NO: 7 within human TNFR2 (KQEGCRLCAPLRKCRPGFGV) (human); assay: peptide binding; assay not given
T4 peptide: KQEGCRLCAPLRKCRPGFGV

Kd (recombinant human TNFR2): ~0.0444 nM
koff (recombinant human TNFR2): 0.000221 s⁻¹
kon (recombinant human TNFR2): 4.98e+06 M⁻¹ s⁻¹
binding result [1]: binds
binding result [2]: binds
fold greater affinity than for the peptide fragment defined by residues 48-67 of SEQ ID NO: 7 (…, SEQ ID NO: 18) [3]: 40 fold
B1: antagonistic TNFR2 antibody TNFRAB1 (antibody, V domains shown)
VH: EVQLQESGGGLVKPGGSLKLSCAASGFTFSSYVMSWVRQTPEKRLEWVATISSGGSYTYYPDSVKGRFTISRDNAKNTLYLQMSSLRSEDTAMYYCARQRVDGYSSYWYFDVWGAGTAVTVSS
VL: DIVLTQSPAIMSASPGEKVTITCSASSSVYYMYWFQQKPGTSPKLWIYSTSNLASGVPVRFSGSGSGTSYSLTISRMEAEDAATYYCQQRRNYPYTFGGGTKLEIKR
notes: Murine monoclonal antibody, full-length IgG; For SPR the antibody was biotinylated and captured on streptavidin; also called TNFR2 antagonist 1
